Reverse-splicing fitness data for 15 variants are collected here from the RNAGym collection of RNA variant scans (doi:10.1093/molbev/msab373).

First the molecules themselves.
B1: Azoarcus group I ribozyme (parent)
chain: GUGCCUUGCGCCGGGAAACCACGCAAGGGAUGGUGUCAAAUUCGGCGAAACCUAAGCGCCCGCCCGGGCGUAUGGCAACGCCGAGCCAAGCUUCGGCGCCUGCGCCGAUGAAGGUGUAGAGACUAGACGGCACCCACCUAAGGCAAACGCUAUGGUGAAGGCAUAGUCCAGGGAGUGGCGAAAGUCACACAAACCGG

The variants in this series derive from B1. Put plainly: reverse-splicing fitness (ratio to wild type); higher = more active; in vitro selection; Mg2+ level not given. Put shortly:
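An in vitro group I ribozyme library with randomized positions was T7-transcribed and gel-purified. In triplicate, 10 pmol RNA in EPPS pH 7.5 was reacted with 50 pmoles of a 30-nt RNA substrate for 1 h at 37 °C across several added MgCl2 levels (1–48 mM), then stopped with EDTA. Products were reverse transcribed from a substrate-complementary primer, PCR-amplified and sequenced (HiSeq 4000). Fitness is a variant's read proportion after selection over that before, normalised to wild type.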
For the variant GUGCCUUGCGCCGGGAAACCACGCAAGGGAUGGUGUCAAAUUCGGCGAAACCUAAGCGCCCGCCCGGGCGUAUGGCAACGCCGAGCCAAGCUUCGGCGCCUGCGCCGAUGUAGGUGUAGGGACUAGACGGCACCCACCUAAGGCUAACGCUAUGGUGAAGGCAUAGUCGAGGGAGUGGCGAAAGUCACACAAACCGG, the reverse-splicing fitness came out at 0.213.
As for GUGCCUUGCGCCGGGAAACCACGCAAGGGAUGGUGUCAAAUUCGGCGAAACCUAAGCGCCCGCCCGGGCGUAUGGCAACGCCGAGCCAAGCUUCGGCGCCUGCGCCGAUGUAGGUGUAGGGACUAGACGGCACCCACCUAAGGCUAACGCUAUGGUGAAGGCAUAGUCUAGGGAGUGGCGAAAGUCACACAAACCGG, the reverse-splicing fitness was found to be 0.164.
As for GUGCCUUGCGCCGGGAAACCACGCAAGGGAUGGUGUCAAAUUCGGCGAAACCUAAGCGCCCGCCCGGGCGUAUGGCAACGCCGAGCCAAGCUUCGGCGCCUGCGCCGAUGUAGGUGUAGGGACUAGACGGCACCCACCUAAGGCAAACGAUAUGGUGAAGGCAUAGUCAAGGGAGUGGCGAAAGUCACACAAACCGG, the reverse-splicing fitness came out at 0.015.
The result for GUGCCUUGCGCCGGGAAACCACGCAAGGGAUGGUGUCAAAUUCGGCGAAACCUAAGCGCCCGCCCGGGCGUAUGGCAACGCCGAGCCAAGCUUCGGCGCCUGCGCCGAUGUAGGUGUAGGGACUAGACGGCACCCACCUAAGGCAAACGAUAUGGUGAAGGCAUAGUCGAGGGAGUGGCGAAAGUCACACAAACCGG reads 0.0231; that for GUGCCUUGCGCCGGGAAACCACGCAAGGGAUGGUGUCAAAUUCGGCGAAACCUAAGCGCCCGCCCGGGCGUAUGGCAACGCCGAGCCAAGCUUCGGCGCCUGCGCCGAUGUAGGUGUAGGGACUAGACGGCACCCACCUAAGGCAAACGAUAUGGUGAAGGCAUAGUCUAGGGAGUGGCGAAAGUCACACAAACCGG, 0.0186; that for GUGCCUUGCGCCGGGAAACCACGCAAGGGAUGGUGUCAAAUUCGGCGAAACCUAAGCGCCCGCCCGGGCGUAUGGCAACGCCGAGCCAAGCUUCGGCGCCUGCGCCGAUGUAGGUGUAGGGACUAGACGGCACCCACCUAAGGCAAACGAUAUGGUGAAGGCAUAGUCAAGGGAGCGGCGAAAGUCACACAAACCGG, 0.0201.
Turning to GUGCCUUGCGCCGGGAAACCACGCAAGGGAUGGUGUCAAAUUCGGCGAAACCUAAGCGCCCGCCCGGGCGUAUGGCAACGCCGAGCCAAGCUUCGGCGCCUGCGCCGAUGUAGGUGUAGGGACUAGACGGCACCCACCUAAGGCAAACGAUAUGGUGAAGGCAUAGUCAAGGGAGGGGCGAAAGUCACACAAACCGG, the reverse-splicing fitness was 0.00606.
Next, GUGCCUUGCGCCGGGAAACCACGCAAGGGAUGGUGUCAAAUUCGGCGAAACCUAAGCGCCCGCCCGGGCGUAUGGCAACGCCGAGCCAAGCUUCGGCGCCUGCGCCGAUGUAGGUGUAGGGACUAGACGGCACCCACCUAAGGCAAACGAUAUGGUGAAGGCAUAGUCAAGGGAGAGGCGAAAGUCACACAAACCGG: 0.0237; GUGCCUUGCGCCGGGAAACCACGCAAGGGAUGGUGUCAAAUUCGGCGAAACCUAAGCGCCCGCCCGGGCGUAUGGCAACGCCGAGCCAAGCUUCGGCGCCUGCGCCGAUGUAGGUGUAGGGACUAGACGGCACCCACCUAAGGCAAACGAUAUGGUGAAGGCAUAGUCGAGGGAGGGGCGAAAGUCACACAAACCGG: 0.00494.
As for GUGCCUUGCGCCGGGAAACCACGCAAGGGAUGGUGUCAAAUUCGGCGAAACCUAAGCGCCCGCCCGGGCGUAUGGCAACGCCGAGCCAAGCUUCGGCGCCUGCGCCGAUGUAGGUGUAGGGACUAGACGGCACCCACCUAAGGCAAACGAUAUGGUGAAGGCAUAGUCGAGGGAGAGGCGAAAGUCACACAAACCGG, the reverse-splicing fitness came out at 0.0251.
GUGCCUUGCGCCGGGAAACCACGCAAGGGAUGGUGUCAAAUUCGGCGAAACCUAAGCGCCCGCCCGGGCGUAUGGCAACGCCGAGCCAAGCUUCGGCGCCUGCGCCGAUGUAGGUGUAGGGACUAGACGGCACCCACCUAAGGCAAACGAUAUGGUGAAGGCAUAGUCGAGGGAGCGGCGAAAGUCACACAAACCGG: the reverse-splicing fitness was 0.0291.
Next, GUGCCUUGCGCCGGGAAACCACGCAAGGGAUGGUGUCAAAUUCGGCGAAACCUAAGCGCCCGCCCGGGCGUAUGGCAACGCCGAGCCAAGCUUCGGCGCCUGCGCCGAUGUAGGUGUAGGGACUAGACGGCACCCACCUAAGGCAAACGAUAUGGUGAAGGCAUAGUCUAGGGAGGGGCGAAAGUCACACAAACCGG: 0.0082; GUGCCUUGCGCCGGGAAACCACGCAAGGGAUGGUGUCAAAUUCGGCGAAACCUAAGCGCCCGCCCGGGCGUAUGGCAACGCCGAGCCAAGCUUCGGCGCCUGCGCCGAUGUAGGUGUAGGGACUAGACGGCACCCACCUAAGGCAAACGAUAUGGUGAAGGCAUAGUCUAGGGAGAGGCGAAAGUCACACAAACCGG: 0.0295.
As to GUGCCUUGCGCCGGGAAACCACGCAAGGGAUGGUGUCAAAUUCGGCGAAACCUAAGCGCCCGCCCGGGCGUAUGGCAACGCCGAGCCAAGCUUCGGCGCCUGCGCCGAUGUAGGUGUAGGGACUAGACGGCACCCACCUAAGGCAAACGAUAUGGUGAAGGCAUAGUCUAGGGAGCGGCGAAAGUCACACAAACCGG, the reverse-splicing fitness amounted to 0.0205.
For GUGCCUUGCGCCGGGAAACCACGCAAGGGAUGGUGUCAAAUUCGGCGAAACCUAAGCGCCCGCCCGGGCGUAUGGCAACGCCGAGCCAAGCUUCGGCGCCUGCGCCGAUGUAGGUGUAGGGACUAGACGGCACCCACCUAAGGCAAACGGUAUGGUGAAGGCAUAGUCAAGGGAGUGGCGAAAGUCACACAAACCGG, the reverse-splicing fitness is 0.0142.
